Literature values, collected in article PMC6832444.

Biological target: PD-L2 (Homo sapiens) (UniProt Q9BQ51)
UniProt Q9BQ51, sequence (Q9BQ51 20-220): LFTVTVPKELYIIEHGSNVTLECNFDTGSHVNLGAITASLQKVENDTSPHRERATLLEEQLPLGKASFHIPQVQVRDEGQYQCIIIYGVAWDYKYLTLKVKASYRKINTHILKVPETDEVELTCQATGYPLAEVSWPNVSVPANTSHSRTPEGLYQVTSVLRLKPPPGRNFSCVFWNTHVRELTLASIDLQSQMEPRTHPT

In the case of PD-1 (from UniProt Q15116), the Kd is listed as 0.14 µM.
